In article doi:10.1101/2022.05.01.490205 (bioRxiv, 2022):

Target: NRR-containing SynNotch receptor (Homo sapiens, UniProt P46531, chimera)
Assay: immunostaining of cells or tissue

Sequence of NRR-containing SynNotch receptor (P46531 whole entry, looked up, change not shown): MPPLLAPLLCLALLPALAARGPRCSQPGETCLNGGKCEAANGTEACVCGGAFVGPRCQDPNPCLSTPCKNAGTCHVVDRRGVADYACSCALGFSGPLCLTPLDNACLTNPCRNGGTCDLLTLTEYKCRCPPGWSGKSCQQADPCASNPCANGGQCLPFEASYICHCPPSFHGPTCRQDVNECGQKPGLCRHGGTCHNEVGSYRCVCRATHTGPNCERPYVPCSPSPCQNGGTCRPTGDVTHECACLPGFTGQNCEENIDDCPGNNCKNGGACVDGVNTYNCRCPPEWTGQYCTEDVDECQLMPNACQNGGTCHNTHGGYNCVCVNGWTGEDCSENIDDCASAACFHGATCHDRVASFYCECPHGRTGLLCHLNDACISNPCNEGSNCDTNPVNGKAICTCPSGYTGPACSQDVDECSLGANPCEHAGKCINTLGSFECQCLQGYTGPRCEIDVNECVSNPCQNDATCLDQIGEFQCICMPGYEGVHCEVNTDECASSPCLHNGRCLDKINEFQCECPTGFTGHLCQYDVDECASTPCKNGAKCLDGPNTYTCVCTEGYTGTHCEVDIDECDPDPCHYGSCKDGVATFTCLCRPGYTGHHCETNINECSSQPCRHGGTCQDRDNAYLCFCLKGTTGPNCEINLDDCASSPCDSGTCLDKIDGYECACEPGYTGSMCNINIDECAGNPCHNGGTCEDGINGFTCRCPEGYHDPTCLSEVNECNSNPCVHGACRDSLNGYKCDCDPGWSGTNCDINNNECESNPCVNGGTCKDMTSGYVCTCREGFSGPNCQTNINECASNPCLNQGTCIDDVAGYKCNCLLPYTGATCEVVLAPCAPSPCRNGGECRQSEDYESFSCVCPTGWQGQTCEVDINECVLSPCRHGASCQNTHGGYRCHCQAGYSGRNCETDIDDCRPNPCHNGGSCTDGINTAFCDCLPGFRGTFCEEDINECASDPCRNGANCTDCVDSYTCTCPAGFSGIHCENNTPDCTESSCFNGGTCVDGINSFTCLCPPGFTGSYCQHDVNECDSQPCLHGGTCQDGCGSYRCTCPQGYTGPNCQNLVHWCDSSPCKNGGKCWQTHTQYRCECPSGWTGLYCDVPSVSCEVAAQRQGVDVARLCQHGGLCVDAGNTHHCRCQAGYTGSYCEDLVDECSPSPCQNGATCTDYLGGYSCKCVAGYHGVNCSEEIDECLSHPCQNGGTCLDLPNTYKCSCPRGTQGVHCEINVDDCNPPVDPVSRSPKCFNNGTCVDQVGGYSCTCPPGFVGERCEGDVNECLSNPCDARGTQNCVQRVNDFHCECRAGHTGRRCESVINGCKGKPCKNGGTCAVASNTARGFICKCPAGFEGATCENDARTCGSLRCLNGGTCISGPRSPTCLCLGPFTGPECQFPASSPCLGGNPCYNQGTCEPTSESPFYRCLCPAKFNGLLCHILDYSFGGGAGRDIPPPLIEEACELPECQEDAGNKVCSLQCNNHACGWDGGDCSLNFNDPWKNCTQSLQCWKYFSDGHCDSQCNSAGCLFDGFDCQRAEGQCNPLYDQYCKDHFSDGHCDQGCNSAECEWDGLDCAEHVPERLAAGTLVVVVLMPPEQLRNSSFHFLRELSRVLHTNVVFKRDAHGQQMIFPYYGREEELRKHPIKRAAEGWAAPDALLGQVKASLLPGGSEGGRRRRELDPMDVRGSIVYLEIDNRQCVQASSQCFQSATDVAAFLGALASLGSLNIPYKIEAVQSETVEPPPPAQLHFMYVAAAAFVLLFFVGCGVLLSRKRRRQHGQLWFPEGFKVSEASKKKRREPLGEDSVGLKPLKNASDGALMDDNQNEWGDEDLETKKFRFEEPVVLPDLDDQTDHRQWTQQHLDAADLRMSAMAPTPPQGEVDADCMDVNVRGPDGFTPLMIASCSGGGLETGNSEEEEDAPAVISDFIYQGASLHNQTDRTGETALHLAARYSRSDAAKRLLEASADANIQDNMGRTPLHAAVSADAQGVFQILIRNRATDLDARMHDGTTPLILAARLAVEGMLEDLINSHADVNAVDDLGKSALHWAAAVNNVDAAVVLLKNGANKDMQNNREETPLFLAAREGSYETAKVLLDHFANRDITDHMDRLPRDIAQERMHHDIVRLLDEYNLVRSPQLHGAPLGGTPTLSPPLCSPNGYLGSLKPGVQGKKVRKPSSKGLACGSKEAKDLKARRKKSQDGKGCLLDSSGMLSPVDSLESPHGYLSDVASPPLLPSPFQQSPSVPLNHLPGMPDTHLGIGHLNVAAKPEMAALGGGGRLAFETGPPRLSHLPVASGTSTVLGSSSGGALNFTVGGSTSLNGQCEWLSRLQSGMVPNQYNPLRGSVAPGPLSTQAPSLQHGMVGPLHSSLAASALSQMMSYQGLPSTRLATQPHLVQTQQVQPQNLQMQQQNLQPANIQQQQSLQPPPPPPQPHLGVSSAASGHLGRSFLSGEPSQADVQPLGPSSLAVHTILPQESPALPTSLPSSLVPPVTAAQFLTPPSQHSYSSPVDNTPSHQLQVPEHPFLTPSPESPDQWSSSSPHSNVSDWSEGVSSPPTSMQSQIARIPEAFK

binding result: binds
B1: soluble anti-NRR scFv (scFv, V domains shown)
VH: EVQLVESGGGLVQPGGSLRLSCAASGFTFSSYWIHWVRQAPGKGLEWVARINPPNRSNQYADSVKGRFTISADTSKNTAYLQMNSLRAEDTAVYYCARGSGFRWVMDYWGQGTLVTVSS
VL: DIQMTQSPSSLSASVGDRVTITCRASQDVSTAVAWYQQKPGKAPKLLIYSASFLYSGVPSRFSGSGSGTDFTLTISSLQPEDFATYYCQQFYTTPSTFGQGTKVEIK
